In patent US20210238229A1, “PEPTIDE FOR DISEASE TREATMENT” (UNIVERSITY COLLEGE CORK - NATIONAL UNIVERSITY OF IRELAND, …, priority 2018, published 2021):
Where no end group is shown, it is not given here.

Key:
[1] = target: T1, AT2 receptor (Homo sapiens, UniProt P50052); experiment: cAMP in AT2-transfected HEK293 cells; type: cell-based; settings: for intracellular cAMP production: AT2-transfected HEK293, 15 min stimulation
T1 construct: expressed in transfected cells; host or cells: HEK-293, transient transfection with PolyFect
T1 sequence (P50052 1-363): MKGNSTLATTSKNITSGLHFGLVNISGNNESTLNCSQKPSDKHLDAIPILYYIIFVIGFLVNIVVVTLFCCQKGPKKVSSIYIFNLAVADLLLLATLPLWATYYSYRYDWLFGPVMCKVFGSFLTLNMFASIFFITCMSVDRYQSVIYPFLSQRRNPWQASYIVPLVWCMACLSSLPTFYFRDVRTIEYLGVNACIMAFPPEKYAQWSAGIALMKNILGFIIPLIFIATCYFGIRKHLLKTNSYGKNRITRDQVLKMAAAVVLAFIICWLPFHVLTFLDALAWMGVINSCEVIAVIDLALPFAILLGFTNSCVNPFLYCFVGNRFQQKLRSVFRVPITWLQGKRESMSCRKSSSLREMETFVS
Method: Human embryonic kidney (HEK-293) cells were cultured in DMEM medium supplemented with FBS (10%), HEPES buffer (1%), sodium pyruvate (1%), and L-glutamine (1%) and maintained under standard conditions (5% CO2, 95% humidity and 37° C.). Cells were cultured in 100 mm cell culture dishes and seeded in 48-well plates at a density of 75,000 cells per well. The next day, HEK-293 cells were transfected using a transient transfection procedure following the manufacturer's instructions. Briefly, 150 ng of control plasmid pcDNA3.1 or a combination of 50 ng of pcDNA3.1 and 100 ng of expression vectors containing the cDNA for Mas, MrgD, AT1 or AT2, were mixed with serum-free medium and PolyFect transfection reagent. After 10 min incubation at room temperature, which allowed the complex formation, complete medium was added and the total volume was transferred into appropriate wells of the 48-well plate. The cells were incubated for 16-20 hrs. The next day, the medium was replaced by serum-free medium 1 hr before stimulation. After stimulation with A779, D-Pro, PD123319, forskolin (all 10^−6 M), or PTX (50 ng/ml), or SQ22536 (2×10^−6M) for 15 min, the solvent, Ang-(1-6) or C21 (all in the mentioned concentrations) were added for 15 min. Then, the cells were lysed by adding 180 μl/well of 0.1M hydrochloric acid with 0.1% Triton X-100, and the lysates were stored at −80° C. until cAMP measurement. The protein concentration was determined using Pierce BCA Protein Assay Kit according to the manufacturer's protocol (Thermo Fisher Scientific, Waltham, Mass., USA).
(§1) cAMP concentration in cell lysates was determined using Direct cAMP ELISA kit (Enzo Life Sciences Ltd., Exeter, United Kingdom). Briefly, wells of 96-well plate (Goat Anti-Rabbit IgG pre-coated) were neutralized with 50 μl of Neutralizing Reagent. Next, 100 μl of acetylated cAMP standard or cell lysate was added, followed by 50 μl of blue cAMP-Alkaline Phosphatase Conjugate and 50 μl of yellow EIA Rabbit Anti-cAMP antibody. The plate was then incubated on a shaker (˜400 rpm) at room temperature for 2 h. Next, the wells were aspirated and rinsed three times with Wash Buffer (1:10, Tris buffered saline containing detergents and sodium azide in deionized water). After the final wash, the plate was tapped against clean paper towel to remove any remaining Wash Buffer. To each well, 200 μl p-Nitrophenyl Phosphate Substrate Solution was added, and the plate was incubated for 1 h at room temperature. The enzymatic reaction was stopped by adding 50 μl of Stop Solution, and the absorbance at 405 nm was measured immediately. The cAMP concentration was determined from non-linear standard curve using GraphPad Prism 6.0 software.
The results are illustrated by FIG. 1A.
pcDNA-transfected HEK293 cells and AT2-transfected HEK293 cells were stimulated for 15 min with a range of concentrations (10^−16 to 10^−6 M) of Ang-(1-6). The results are illustrated by FIGS. 1B and 1C.
AT2-transfected HEK293 cells were stimulated for 15 min with a range of concentrations (10^−13 to 10^−6 M) of C21, Ang (1-4) and Ang (1-7) PBS and the concentration of cAMP was measured in accordance with the methodology provided. The results are illustrated by FIGS. 6 and 7.
AT2-transfected HEK293 cells were stimulated for 15 min with C21, Ang-(1-6) and a range of concentrations (10^−14 to 10^−7 M) of Ala^1-Ser^4-Ang-(1-6), and the concentration of cAMP was measured in accordance with the methodology provided.
AT2-transfected HEK293 cells were stimulated for 15 min with Ang-(1-6) and a range of concentrations (10^−15 to 10^−7 M) of Ser^4-Ang-(1-6) and the concentration of cAMP was measured in accordance with the methodology provided.

[2] = target: T1, AT2 receptor; experiment: Block of Ang-(1-6) mediated cAMP signal in AT2-transfected HEK293 cells; type: cell-based; settings: Ang-(1-6) 10^−10 M, increasing antagonist concentrations
Method: Human embryonic kidney (HEK-293) cells were cultured in DMEM medium supplemented with FBS (10%), HEPES buffer (1%), sodium pyruvate (1%), and L-glutamine (1%) and maintained under standard conditions (5% CO2, 95% humidity and 37° C.). Cells were cultured in 100 mm cell culture dishes and seeded in 48-well plates at a density of 75,000 cells per well. The next day, HEK-293 cells were transfected using a transient transfection procedure following the manufacturer's instructions. […] The protein concentration was determined using Pierce BCA Protein Assay Kit according to the manufacturer's protocol (Thermo Fisher Scientific, Waltham, Mass., USA).
cAMP concentration in cell lysates was determined using Direct cAMP ELISA kit (Enzo Life Sciences Ltd., Exeter, United Kingdom). […] The enzymatic reaction was stopped by adding 50 μl of Stop Solution, and the absorbance at 405 nm was measured immediately. The cAMP concentration was determined from non-linear standard curve using GraphPad Prism 6.0 software.
Cells were stimulated for 15 min with (a) 10^−11 M and 10^−1° M Ang-(1-6), (b) Ala^1-Ang-(1-6) (10^−10 M) or (c) a range of concentrations (10^−12M to 10^−8M) of Ala^1-Ang (1-6) together with Ang-(1-6) at a concentration of 10^−10M. The concentration of cAMP was measured in accordance with the methodology provided.

[3] = Peptide degradation in mouse kidney membranes; type: in vitro ADME; settings: after 15 minutes, compared to Ang-(1-7) and Ang II
Method: Peptides (10^−4M) were incubated with 45 μg of murine kidney membrane preparations and diluted with 50 mM Tris-HCl buffer pH 7.4 laced with 0.1% BSA to minimise adhesion of the peptide onto the tube walls. Incubations proceeded for the desired time, after which the reaction was stopped by addition of half volume of 350 mM HClO4. Samples were then centrifuged to remove any particulates prior to LCMS analysis.
Ang-(1-6) degradation in mouse kidney membranes over 30 minutes compared to Ang-(1-7) and Ang II. (FIG. 4A)

[4] = tested on: HUVEC; experiment: cAMP in primary human umbilical vein endothelial cells; type: cell-based; settings: 15 min stimulation
Method: Primary human umbilical vein endothelial cells (HUVEC) were purchased from PromoCell (Heidelberg, Germany). HUVEC were cultured in 100 mm cell culture dishes and were seeded at 75,000 per well in 24-well plates at passage 5-7, for stimulation. Stimulation with Ang-(1-6) or C21 and the blockers was carried out as described above.
as §1, with “To each well, 200 μl p-Nitrophenyl Phosphate Substrate Solution was added, and the plate was incubated for 1 h at room temperature.” left out, “software. […]” for “software.”

[5] = tested on: Human kidney cancer A498 cells; experiment: Colony formation assay; type: cell-based; settings: daily treatment for 5 days
Method: Human kidney cancer A498 cells were seeded at 300 cells/well in a 6-well plate. The next day, cells were treated with various peptides daily. Each condition was run in triplicate. After 5 days of treatment, cells were washed once with PBS after media removal, stained with 0.5% crystal violet in 30% ethanol and 3% formaldehyde for 10 min at RT and washed with distilled water. Colonies were counted under the microscope.
Human renal cancer cells were treated with Ang-(1-6) or analogues and the effect on colony formation counted. Such cells are used for in vivo experiments in rodents when implanted subcutaneously or into the kidney to generate a rapidly forming and growing tumour, being leathal if untreated.

DRVY (Angiotensin-2; UniProt P01019 25-28, looked up, fragment) [Ang (1-4), angiotensin fragment 1-4, reference compound]
intracellular cAMP production [1]: do not increase intracellular cAMP

ARVYIH [Ala^1-Ang-(1-6), variant of Ang-(1-6) with Ala at position 1, AT2 antagonist]
intracellular cAMP production [1]: no effect
block of cAMP-generating capacity of Ang-(1-6) [2]: completely blocked

DRVYIHP [Ang (1-7), reference compound]
intracellular cAMP production [1]: do not increase intracellular cAMP

DRVYIH [Ang (1-6), DRVYIH]
peptide degradation [3]: rapid

CCCCOC(=O)NS(=O)(=O)c1sc(CC(C)C)cc1-c1ccc(Cn2ccnc2)cc1 [C21]
cAMP stimulation in primary endothelial cells (HUVEC) [4]: can stimulate such cells

RVSIH [Ser^4-Ang (2-6), fragment peptide 2-6 with Ser substitution]
number of colonies versus solvent (PBS) [5]: significant reduction of colonies

DRVSIH [Ser^4-Ang-(1-6), variant of Ang-(1-6) with Ser at position 4]
AT2 stimulation relative to Ang (1-6) ([1]; AT2-transfected HEK293, 10^−15 to 10^−7 M): comparable to Ang (1-6)
intracellular cAMP production [1]: increases intracellular cAMP production

ARVSIH [Ala^1-Ser^4-Ang-(1-6), variant of Ang-(1-6) with Ala at position 1 and Ser at position 4]
concentration at Emax (cAMP) ([1]; AT2-transfected HEK293): 10^−11 M
intracellular cAMP production [1]: increases intracellular cAMP production
increase in intracellular cAMP production compared with Ang (1-6) ([1]; same concentration (10^−11M)): greater increase

RVYIH [Ang (2-6), truncated version of Ang (1-6)]
number of colonies versus solvent (PBS) [5]: significant reduction of colonies
